Data from US20040138118.
Changes are numbered by the printed parent chain.

What was measured:
[1] = target: D76A mutant myostatin pro peptide
[2] = target: myostatin pro peptide (wild type)
[3] = target: T1, 20-mer D to A mutant peptide (SEQ ID NO:20)
T1 chain: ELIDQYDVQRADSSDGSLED

[4] = target: T2, 20-mer R to Q mutant peptide (SEQ ID NO:19)
T2 chain: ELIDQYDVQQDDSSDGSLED

[5] = target: T3, 20-mer wild type myostatin pro peptide peptide (SEQ ID NO:18)
T3 chain: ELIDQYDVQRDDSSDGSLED

[6] = target: T4, 30-mer D to A mutant peptide (SEQ ID NO:17)
T4 chain: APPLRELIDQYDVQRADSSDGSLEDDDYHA

[7] = target: T5, 30-mer R to Q mutant peptide (SEQ ID NO:16)
T5 chain: T4 chain with R15Q, A16D

[8] = target: T6, 30-mer wild type myostatin pro peptide peptide (SEQ ID NO:15)
T6 chain: T4 chain with A16D

[9] = target: T7, 40-mer D to A mutant peptide (SEQ ID NO:14)
T7 chain: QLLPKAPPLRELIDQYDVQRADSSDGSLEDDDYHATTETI

[10] = target: T8, 40-mer R to Q mutant peptide (SEQ ID NO:13)
T8 chain: T7 chain with R20Q, A21D

[11] = target: T9, 40-mer wild type myostatin pro peptide peptide (SEQ ID NO:12)
T9 chain: T7 chain with A21D

D76A mutant myostatin pro peptide, sequence (chain, as listed by the source D76A): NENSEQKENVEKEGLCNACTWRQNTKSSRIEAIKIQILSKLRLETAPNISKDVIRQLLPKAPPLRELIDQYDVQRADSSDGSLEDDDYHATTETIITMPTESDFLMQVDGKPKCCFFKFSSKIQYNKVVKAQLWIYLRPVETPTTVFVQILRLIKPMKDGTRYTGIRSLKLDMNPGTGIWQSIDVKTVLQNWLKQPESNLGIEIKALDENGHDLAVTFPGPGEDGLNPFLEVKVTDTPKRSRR

B1: bone morphogenic protein-1 (BMP-1) (protein)
chain: AATSRPERVWPDGVIPFVIGGNFTGSQRAVFRQAMRHWEKHTCVTFLERTDEDSYIVFTYRPCGCCSYVGRRGGGPQAISIGKNCDKFGIVVHELGHVVGFWHEHTRPDRDRHVSIVRENIQPGQEYNFLKMEPQEVESLGETYDFDSIMHYARNTFSRGIFLDTIVPKYEVNGVKPPIGQRTRLSKGDIAQARKLYKCPACGETLQDSTGNFSSPEYPNGYSAHMHCVWRISVTPGEKIILNFTSLDLYRSRLCWYDYVEVRDGFWRKAPLRGRFCGSKLPEPIVSTDSRLWVEFRSSSNWVGKGFFAVYEAICGGDVKKDYGHIQSPNYPDDYRPSKVCIWRIQVSEGFHVGLTFQSFEIERHDSCAYDYLEVRDGHSESSTLIGRYCGYEKPDDIKSTSSRLWLKFVSDGSINKAGFAVNFFKEVDECSRPNRGGCEQRCLNTLGSYKCSCDPGYELAPDKRRCEAACGGFLTKLNGSITSPGWPKEYPPNKNCIWQLVAPTQYRISLQFDFFETEGNDVCKYDFVEVRSGLTADSKLHGKFCGSEKPEVITSQYNNMRVEFKSDNTVSKKGFKAHFFSEKRPALQPPRGRPHQLKFRVQKRNRTPQ
proteolytic cleavage of the mutant pro peptide in the latent complex, western blot (FIGS. 3D and E) [1]: completely resistant to proteolysis by each of the four proteinases
partial proteolytic cleavage of the pro peptide in the latent complex, western blot (FIG. 3E) [2]: BMP-1, mTLL-1, and mTLL-2, were approximately equally effective in cleaving the pro peptide
proteolytic cleavage of free pro peptide [2]: All four of these proteinases also cleaved pro peptide that had been purified away from the C-terminal dimer
proteolytic cleavage of the pro peptide in the latent complex, western blot (FIG. 3D) [2]: incubation of the purified latent complex with purified BMP-1 resulted in complete cleavage of the pro peptide to generate a single product
proteolytic cleavage, SDS-PAGE and western blot with anti-pro peptide antiserum [2]: A discrete proteolytic cleavage product of the pro peptide was detected in each reaction containing one of the four proteases

B2: mammalian Tolloid-like-1 (mTLL-1) (protein)
chain: AATSRTERIWPGGVIPYVIGGNFTGSQRAMFKQAMRHWEKHTCVTFIERSDEESYIVFTYRPCGCCSYVGRRGNGPQAISIGKNCDKFGIVVHELGHVIGFWHEHTRPDRDNHVTIIRENIQPGQEYNFLKMEPGEVNSLGERYDFDSIMHYARNTFSRGMFLDTILPSRDDNGIRPAIGQRTRLSKGDIAQARKLYRCPACGETLQESNGNLSSPGFPNGYPSYTHCIWRVSVTPGEKIVLNFTTMDLYKSSLCWYDYIEVRDGYWRKSPLLGRFCGDKLPEVLTSTDSRMWIEFRSSSNWVGKGFAAVYEAICGGEIRKNEGQIQSPNYPDDYRPMKECVWKITVSESYHVGLTFQSFEIERHDNCAYDYLEVRDGTSENSPLIGRFCGYDKPEDIRSTSNTLWMKFVSDGTVNKAGFAANFFKEEDECAKPDRGGCEQRCLNTLGSYQCACEPGYELGPDRRSCEAACGGLLTKLNGTITTPGWPKEYPPNKNCVWQVVAPTQYRISVKFEFFELEGNEVCKYDYVEIWSGLSSESKLHGKFCGAEVPEVITSQFNNMRIEFKSDNTVSKKGFKAHFFSDKDECSKDNGGCQHECVNTMGSYMCQCRNGFVLHDNKHDCKEAECEQKIHSPSGLITSPNWPDKYPSRKECTWEISATPGHRIKLAFSEFEIEQHQECAYDHLEVFDGETEKSPILGRLCGNKIPDPLVATGNKMFVRFVSDASVQRKGFQATHSTECGGRLKAESKPRDLYSHAQFGDNNYPGQVDCEWLLVSERGSRLELSFQTFEVEEEADCGYDYVELFDGLDSTAVGLGRFCGSGPPEEIYSIGDSVLIHFHTDDTINKKGFHIRYKSIRYPDTTHTKK
proteolytic cleavage of the mutant pro peptide in the latent complex, western blot (FIGS. 3D and E) [1]: completely resistant to proteolysis by each of the four proteinases
partial proteolytic cleavage of the pro peptide in the latent complex, western blot (FIG. 3E) [2]: BMP-1, mTLL-1, and mTLL-2, were approximately equally effective in cleaving the pro peptide
proteolytic cleavage of free pro peptide [2]: All four of these proteinases also cleaved pro peptide that had been purified away from the C-terminal dimer
proteolytic cleavage, SDS-PAGE and western blot with anti-pro peptide antiserum [2]: A discrete proteolytic cleavage product of the pro peptide was detected in each reaction containing one of the four proteases

B3: mammalian Tolloid-like-2 (mTLL-2) (protein)
chain: ATTSRTERIWPGGVIPYVIGGNFTGSQRAIFKQAMRHWEKHTCVTFIERTDEESFIVFSYRTCGCCSYVGRRGGGPQAISIGKNCDKFGIVAHELGHVVGFWHEHTRPDRDQHVTIIRENIQPGQEYNFLKMEAGEVSSLGETYDFDSIMHYARNTFSRGVFLDTILPRQDDNGVRPTIGQRVRLSQGDIAQARKLYKCPACGETLQDTTGNFSAPGFPNGYPSYSHCVWRISVTPGEKIVLNFTSMDLFKSRLCWYDYVEVRDGYWRKAPLLGRFCGDKIPEPLVSTDSRLWVEFRSSSNILGKGFFAAYEATCGGDMNKDAGQIQSPNYPDDYRPSKECVWRITVSEGFHVGLTFQAFEIERHDSCAYDYLEVRDGPTEESALIGHFCGYEKPEDVKSSSNRLWMKFVSDGSINKAGFAANFFKEVDECSWPDHGGCEHRCVNTLGSYKCACDPGYELAADKKMCEVACGGFITKLNGTITSPGWPKEYPTNKNCVWQVVAPAQYRISLQFEVFELEGNDVCKYDFVEVRSGLSPDAKLHGRFCGSETPEVITSQSNNMRVEFKSDNTVSKRGFRAHFFSDKDECAKDNGGCQHECVNTFGSYLCRCRNGYWLHENGHDCKEAGCAHKISSVEGTLASPNWPDKYPSRRECTWNISSTAGHRVKLTFNEFEIEQHQECAYDHLEMYDGPDSLAPILGRFCGSKKPDPTVASGSSMFLRFYSDASVQRKGFQAVHSTECGGRLKAEVQTKELYSHAQFGDNNYPSEARCDWVIVAEDGYGVELTFRTFEVEEEADCGYDYMEAYDGYDSSAPRLGRFCGSGPLEEIYSAGDSLMIRFRTDDTINKKGFHARYTSTKFQDALHMKK
peptide cleavage, HPLC and mass spectrometry [3]: the peptides containing the D→A mutation at the P1′ position were not cleaved
peptide cleavage, HPLC and mass spectrometry [4]: The 40-mer, 30-mer, and 20-mer wild type and R→Q mutant peptides were cleaved by conditioned media containing TLL-2
peptide cleavage, HPLC and mass spectrometry [5]: The 40-mer, 30-mer, and 20-mer wild type and R→Q mutant peptides were cleaved by conditioned media containing TLL-2
peptide cleavage, HPLC and mass spectrometry [6]: the peptides containing the D→A mutation at the P1′ position were not cleaved
peptide cleavage, HPLC and mass spectrometry [7]: The 40-mer, 30-mer, and 20-mer wild type and R→Q mutant peptides were cleaved by conditioned media containing TLL-2
peptide cleavage, HPLC and mass spectrometry [8]: The 40-mer, 30-mer, and 20-mer wild type and R→Q mutant peptides were cleaved by conditioned media containing TLL-2
peptide cleavage, HPLC and mass spectrometry [9]: the peptides containing the D→A mutation at the P1′ position were not cleaved
peptide cleavage, HPLC and mass spectrometry [10]: The 40-mer, 30-mer, and 20-mer wild type and R→Q mutant peptides were cleaved by conditioned media containing TLL-2
peptide cleavage, HPLC and mass spectrometry [11]: The 40-mer, 30-mer, and 20-mer wild type and R→Q mutant peptides were cleaved by conditioned media containing TLL-2
proteolytic cleavage of the mutant pro peptide in the latent complex, western blot (FIGS. 3D and E) [1]: completely resistant to proteolysis by each of the four proteinases
partial proteolytic cleavage of the pro peptide in the latent complex, western blot (FIG. 3E) [2]: BMP-1, mTLL-1, and mTLL-2, were approximately equally effective in cleaving the pro peptide
proteolytic cleavage of free pro peptide [2]: All four of these proteinases also cleaved pro peptide that had been purified away from the C-terminal dimer
proteolytic cleavage, SDS-PAGE and western blot with anti-pro peptide antiserum [2]: A discrete proteolytic cleavage product of the pro peptide was detected in each reaction containing one of the four proteases
